In the array DNA melting data of Ke et al. one finds Tm data, which are given here for 66 substances.

In general, Tm refers to the temperature at which the thermal transition is half complete.

A short description of the data set: melting temperature; melt of duplexes. The following applies: sodium 0.0675 M; strand 1 µM.
In the case of “CGACGTGCAGTATGTGCTG+CAGCACATTATGCACGTCG (((((((((..((((((((+))))))))..)))))))))”, the Tm came out at 52.4 °C.

Consider “CGACGTGCCCTATGTGCTG+CAGCACATGGCGCACGTCG ((((((((.(.((((((((+)))))))).).))))))))”, for which the Tm is 52.9 °C.

Regarding “CGACGTGCGGCATGTGCTG+CAGCACATGTCGCACGTCG (((((((((.(((((((((+))))))))).)))))))))”, the Tm worked out at 63.5 °C.

Turning to “CGACGTGCAATATGTGCTG+CAGCACATACGGCACGTCG ((((((((..(((((((((+)))))))))..))))))))”, the Tm worked out at 49.4 °C.

As to “CGACGTGCGGAATGTGCTG+CAGCACATAAAGCACGTCG ((((((((...((((((((+))))))))...))))))))”, the Tm amounted to 55.5 °C.

For the substance “CGACGTGCAATATGTGCTG+CAGCACATAACGCACGTCG ((((((((..(((((((((+)))))))))..))))))))”, the Tm worked out at 50.7 °C.

Consider “CGACGTGCTGAATGTGCTG+CAGCACATAGAGCACGTCG (((((((((..((((((((+))))))))..)))))))))”, for which the Tm turned out to be 52.2 °C.

As to “CGACGTGCATTATGTGCTG+CAGCACATATGGCACGTCG ((((((((..(((((((((+)))))))))..))))))))”, the Tm amounted to 51.8 °C.

For “CGACGTGCATGATGTGCTG+CAGCACATACAGCACGTCG ((((((((...((((((((+))))))))...))))))))”, the Tm came out at 49.5 °C.

Take “CGACGTGCATAATGTGCTG+CAGCACATCAGGCACGTCG ((((((((.(.((((((((+)))))))).).))))))))”: the Tm was found to be 50.2 °C.

As to “CGACGTGCGTTATGTGCTG+CAGCACATTGGGCACGTCG ((((((((...((((((((+))))))))...))))))))”, the Tm is 50.3 °C.

For “CGACGTGCGAGATGTGCTG+CAGCACATACGGCACGTCG ((((((((...((((((((+))))))))...))))))))”, the Tm is 50.1 °C.

In the case of “CGACGTGCAAAATGTGCTG+CAGCACATGGAGCACGTCG ((((((((...((((((((+))))))))...))))))))”, the Tm was 53.9 °C.

As for “CGACGTGCCACATGTGCTG+CAGCACATGTCGCACGTCG ((((((((.((((((((((+)))))))))).))))))))”, the Tm was determined as 56.4 °C.

Take “CGACGTGCCAAATGTGCTG+CAGCACATTCCGCACGTCG ((((((((..(((((((((+)))))))))..))))))))”: the Tm stood at 50.1 °C.

On to “CGACGTGCGGAATGTGCTG+CAGCACATATAGCACGTCG ((((((((...((((((((+))))))))...))))))))”, for which the Tm is 55 °C.

Take “CGACGTGCGCTATGTGCTG+CAGCACATACAGCACGTCG ((((((((..(((((((((+)))))))))..))))))))”: the Tm was 52.1 °C.

In the case of “CGACGTGCGAGATGTGCTG+CAGCACATCTTGCACGTCG ((((((((.((((((((((+)))))))))).))))))))”, the melting temperature (Tm) is 60.2 °C.

With “CGACGTGCAGTATGTGCTG+CAGCACATGAAGCACGTCG ((((((((...((((((((+))))))))...))))))))”, the Tm is 50.5 °C.

As for “CGACGTGCCTAATGTGCTG+CAGCACATCGCGCACGTCG ((((((((...((((((((+))))))))...))))))))”, the Tm worked out at 47 °C.

With “CGACGTGCCGAATGTGCTG+CAGCACATCACGCACGTCG ((((((((...((((((((+))))))))...))))))))”, the midpoint of thermal melting (Tm) came out at 48.9 °C.

“CGACGTGCATAATGTGCTG+CAGCACATTGGGCACGTCG ((((((((..(((((((((+)))))))))..))))))))”: the Tm was 54.2 °C.

In the case of “CGACGTGCTATATGTGCTG+CAGCACATGTGGCACGTCG ((((((((.(.((((((((+)))))))).).))))))))”, the Tm is 53.6 °C.

Consider “CGACGTGCGAGATGTGCTG+CAGCACATCCGGCACGTCG ((((((((..(((((((((+)))))))))..))))))))”, for which the Tm is 55.7 °C.

Consider “CGACGTGCGTCATGTGCTG+CAGCACATAGTGCACGTCG ((((((((...((((((((+))))))))...))))))))”, for which the Tm was 45.9 °C.

For “CGACGTGCGTGATGTGCTG+CAGCACATGAAGCACGTCG ((((((((.(.((((((((+)))))))).).))))))))”, the Tm came out at 54 °C.

For the substance “CGACGTGCGCAATGTGCTG+CAGCACATCTGGCACGTCG ((((((((...((((((((+))))))))...))))))))”, the Tm was 49.8 °C.

In the case of “CGACGTGCTATATGTGCTG+CAGCACATGACGCACGTCG ((((((((...((((((((+))))))))...))))))))”, the Tm came to 47.6 °C.

Turning to “CGACGTGCTCCATGTGCTG+CAGCACATTCAGCACGTCG (((((((((..((((((((+))))))))..)))))))))”, the Tm is 48.7 °C.

For the substance “CGACGTGCGGTATGTGCTG+CAGCACATACAGCACGTCG ((((((((.((((((((((+)))))))))).))))))))”, the Tm came to 59.5 °C.

With “CGACGTGCACTATGTGCTG+CAGCACATCCTGCACGTCG (((((((((..((((((((+))))))))..)))))))))”, the Tm came out at 44.9 °C.

“CGACGTGCCCGATGTGCTG+CAGCACATACGGCACGTCG (((((((((..((((((((+))))))))..)))))))))”: the Tm was 53.5 °C.

Consider “CGACGTGCTGGATGTGCTG+CAGCACATTGGGCACGTCG ((((((((...((((((((+))))))))...))))))))”, for which the Tm came to 52 °C.

Turning to “CGACGTGCCACATGTGCTG+CAGCACATCCGGCACGTCG (((((((((..((((((((+))))))))..)))))))))”, the melting temperature (Tm) was 52.6 °C.

On to “CGACGTGCGAGATGTGCTG+CAGCACATGCTGCACGTCG ((((((((...((((((((+))))))))...))))))))”, for which the Tm amounted to 50.4 °C.

As to “CGACGTGCGTCATGTGCTG+CAGCACATGTGGCACGTCG ((((((((..(((((((((+)))))))))..))))))))”, the Tm stood at 54.8 °C.

For the substance “CGACGTGCAGGATGTGCTG+CAGCACATAAAGCACGTCG ((((((((...((((((((+))))))))...))))))))”, the Tm was 50.6 °C.

For the substance “CGACGTGCGTAATGTGCTG+CAGCACATATCGCACGTCG (((((((((..((((((((+))))))))..)))))))))”, the Tm came out at 55.6 °C.

For the substance “CGACGTGCGCAATGTGCTG+CAGCACATAGAGCACGTCG ((((((((.(.((((((((+)))))))).).))))))))”, the Tm stood at 54.7 °C.

As to “CGACGTGCCTGATGTGCTG+CAGCACATAATGCACGTCG ((((((((.(.((((((((+)))))))).).))))))))”, the Tm came out at 49.9 °C.

With “CGACGTGCGATATGTGCTG+CAGCACATGTTGCACGTCG ((((((((.(.((((((((+)))))))).).))))))))”, the Tm was 54.6 °C.

Take “CGACGTGCAAAATGTGCTG+CAGCACATGTTGCACGTCG ((((((((((.((((((((+)))))))).))))))))))”: the Tm was found to be 56.4 °C.

In the case of “CGACGTGCGATATGTGCTG+CAGCACATCACGCACGTCG (((((((((..((((((((+))))))))..)))))))))”, the Tm worked out at 53.7 °C.

In the case of “CGACGTGCGCTATGTGCTG+CAGCACATAGGGCACGTCG ((((((((.((((((((((+)))))))))).))))))))”, the Tm worked out at 59.6 °C.

In the case of “CGACGTGCCGTATGTGCTG+CAGCACATTTTGCACGTCG ((((((((...((((((((+))))))))...))))))))”, the Tm came to 47.5 °C.

On to “CGACGTGCCGTATGTGCTG+CAGCACATCTGGCACGTCG (((((((((..((((((((+))))))))..)))))))))”, for which the Tm was 55.3 °C.

Regarding “CGACGTGCATGATGTGCTG+CAGCACATCTGGCACGTCG ((((((((..(((((((((+)))))))))..))))))))”, the Tm is 56.1 °C.

On to “CGACGTGCCGCATGTGCTG+CAGCACATTCTGCACGTCG ((((((((.(.((((((((+)))))))).).))))))))”, for which the Tm came out at 48.8 °C.

Regarding “CGACGTGCTCAATGTGCTG+CAGCACATGAGGCACGTCG ((((((((...((((((((+))))))))...))))))))”, the Tm is 53 °C.

For “CGACGTGCGCCATGTGCTG+CAGCACATATAGCACGTCG ((((((((...((((((((+))))))))...))))))))”, the Tm was 52.4 °C.

Turning to “CGACGTGCTGTATGTGCTG+CAGCACATTGCGCACGTCG ((((((((...((((((((+))))))))...))))))))”, the Tm was 47.9 °C.

Consider “CGACGTGCGGCATGTGCTG+CAGCACATATGGCACGTCG ((((((((...((((((((+))))))))...))))))))”, for which the Tm was found to be 49.5 °C.

Turning to “CGACGTGCGCAATGTGCTG+CAGCACATGCGGCACGTCG ((((((((...((((((((+))))))))...))))))))”, the Tm stood at 56.3 °C.

For “CGACGTGCCCTATGTGCTG+CAGCACATAATGCACGTCG ((((((((..(((((((((+)))))))))..))))))))”, the Tm was 48.8 °C.

Regarding “CGACGTGCTTAATGTGCTG+CAGCACATAGCGCACGTCG ((((((((...((((((((+))))))))...))))))))”, the Tm worked out at 47.3 °C.

Consider “CGACGTGCGCCATGTGCTG+CAGCACATCATGCACGTCG ((((((((...((((((((+))))))))...))))))))”, for which the Tm came out at 47.8 °C.

Regarding “CGACGTGCGAAATGTGCTG+CAGCACATGACGCACGTCG (((((((((..((((((((+))))))))..)))))))))”, the midpoint of thermal melting (Tm) was found to be 55 °C.

“CGACGTGCTTTATGTGCTG+CAGCACATGCCGCACGTCG ((((((((...((((((((+))))))))...))))))))”: the melting temperature (Tm) is 46.7 °C.

For “CGACGTGCACGATGTGCTG+CAGCACATCTCGCACGTCG ((((((((..(((((((((+)))))))))..))))))))”, the Tm was 50.6 °C.

In the case of “CGACGTGCGAAATGTGCTG+CAGCACATCGCGCACGTCG (((((((((..((((((((+))))))))..)))))))))”, the Tm worked out at 53.8 °C.

For the substance “CGACGTGCTCGATGTGCTG+CAGCACATAGAGCACGTCG ((((((((((.((((((((+)))))))).))))))))))”, the Tm was determined as 59.5 °C.

On to “CGACGTGCTAGATGTGCTG+CAGCACATCAGGCACGTCG ((((((((..(((((((((+)))))))))..))))))))”, for which the Tm stood at 56.2 °C.

For the substance “CGACGTGCCGTATGTGCTG+CAGCACATCTAGCACGTCG ((((((((...((((((((+))))))))...))))))))”, the Tm was determined as 49.1 °C.

Consider “CGACGTGCGCAATGTGCTG+CAGCACATGAGGCACGTCG ((((((((...((((((((+))))))))...))))))))”, for which the Tm worked out at 52.4 °C.

As to “CGACGTGCTGCATGTGCTG+CAGCACATTTAGCACGTCG (((((((((..((((((((+))))))))..)))))))))”, the Tm is 51 °C.

As to “CGACGTGCCCTATGTGCTG+CAGCACATAACGCACGTCG ((((((((..(((((((((+)))))))))..))))))))”, the Tm was 48.7 °C.
